Measurements taken from publication PMC3593967 (Molecular pharmaceutics, 2013).
Bridge positions count the residues as written; N and C are the ends. Square brackets hold non-standard residues; d marks the D form. Peptide text beside a SMILES is read from it. * marks the point of attachment. DOTA(p-xylylenediamine) = O=C(O)CN1CCN(CC(=O)O)CCN(CC(=O)NCc2ccc(CN*)cc2)CCN(CC(=O)O)CC1; DOTA = O=C(O)CN1CCN(CC(=O)O)CCN(CC(=O)*)CCN(CC(=O)O)CC1; Tyr(3-Cl) = N[C@@H](Cc1ccc(O)c(Cl)c1)C(=O)O; Hyp = O=C(O)[C@@H]1C[C@@H](O)CN1

Columns and labels:
arterial thrombus = assay: Biodistribution in rat model of carotid artery thrombosis; type: in vivo; details: 120 min post injection, ratio of %ID/g
[1] = as above; type: in vivo; details: male, Wistar, in vivo, iv, total radioactivity, Biodistribution

Row | Structure (SMILES) | thrombus uptake relative to blood (arterial thrombus) | tissue uptake at 2 h ([1]; blood) | tissue uptake at 2 h ([1]; bone) | tissue uptake at 2 h ([1]; brain) | tissue uptake at 2 h ([1]; clot) | tissue uptake at 2 h ([1]; heart) | tissue uptake at 2 h ([1]; intestine) | tissue uptake at 2 h ([1]; kidney) | tissue uptake at 2 h ([1]; liver) | tissue uptake at 2 h ([1]; lungs) | tissue uptake at 2 h ([1]; muscle) | tissue uptake at 2 h ([1]; spleen)
1 | CC[C@H](C)[C@H](NC(=O)[C@H](Cc1ccc(O)cc1)NC(=O)[C@@H]1CSSC[C@H](NC(=O)[C@@H](CCC(=O)O)NC(=O)[C@H](Cc2ccc(O)cc2)NC(=O)CN2CCN(CC(=O)O)CCN(CC(=O)O)CCN(CC(=O)O)CC2)C(=O)N2C[C@H](O)C[C@H]2C(=O)N[C@@H](Cc2ccc(O)c(Cl)c2)C(=O)NCC(=O)N[C@@H](CC(C)C)C(=O)N1)C(=O)N[C@@H](CCC(N)=O)C(=O)NCc1ccc(CNC(=O)CN2CCN(CC(=O)O)CCN(CC(=O)O)CCN(CC(=O)O)CC2)cc1 [FBP1] ({DOTA}-Y[dE]C[Hyp][Tyr(3-Cl)]GLCYIQ-{DOTA(p-xylylenediamine)}; disulfide 3-8) | > 2.5 fold | – | – | – | – | – | – | – | – | – | – | –
2 | CC[C@H](C)[C@H](NC(=O)[C@H](Cc1c[nH]cn1)NC(=O)[C@@H]1CSSC[C@H](NC(=O)[C@H](Cc2c[nH]cn2)NC(=O)[C@H](Cc2ccccc2)NC(=O)CN2CCN(CC(=O)O)CCN(CC(=O)O)CCN(CC(=O)O)CC2)C(=O)N2C[C@H](O)C[C@H]2C(=O)N[C@@H](Cc2ccc(O)c(Cl)c2)C(=O)N[C@@H](CC(=O)O)C(=O)N[C@@H](CC(C)C)C(=O)N1)C(=O)N[C@@H](CC(C)C)C(=O)NCc1ccc(CNC(=O)CN2CCN(CC(=O)O)CCN(CC(=O)O)CCN(CC(=O)O)CC2)cc1 [FBP2] ({DOTA}-FHC[Hyp][Tyr(3-Cl)]DLCHIL-{DOTA(p-xylylenediamine)}; disulfide 3-8) | > 2.5 fold | 0.164 ± 0.016 %ID/g | 0.043 ± 0.015 %ID/g | 0.017 ± 0.004 %ID/g | 0.445 ± 0.102 %ID/g | 0.074 ± 0.011 %ID/g | 0.278 ± 0.095 %ID/g | 2.72 ± 0.848 %ID/g | 0.617 ± 0.187 %ID/g | 0.048 ± 0.01 %ID/g | 0.012 ± 0.003 %ID/g | 0.071 ± 0.016 %ID/g
3 | CC[C@H](C)[C@H](NC(=O)[C@H](Cc1c[nH]c2ccccc12)NC(=O)[C@@H]1CSSC[C@H](NC(=O)[C@H](CCC(=O)O)NC(=O)[C@H](Cc2c[nH]c3ccccc23)NC(=O)CN2CCN(CC(=O)O)CCN(CC(=O)O)CCN(CC(=O)O)CC2)C(=O)N2C[C@H](O)C[C@H]2C(=O)N[C@@H](Cc2ccc(O)c(Cl)c2)C(=O)NCC(=O)N[C@@H](CC(C)C)C(=O)N1)C(=O)N[C@@H](CCC(N)=O)C(=O)NCc1ccc(CNC(=O)CN2CCN(CC(=O)O)CCN(CC(=O)O)CCN(CC(=O)O)CC2)cc1 [FBP3] ({DOTA}-WEC[Hyp][Tyr(3-Cl)]GLCWIQ-{DOTA(p-xylylenediamine)}; disulfide 3-8) | no difference | 0.184 ± 0.026 %ID/g | 0.041 ± 0.011 %ID/g | 0.011 ± 0.003 %ID/g | 0.183 ± 0.088 %ID/g | 0.082 ± 0.01 %ID/g | 0.184 ± 0.053 %ID/g | 0.621 ± 0.186 %ID/g | 1.46 ± 0.292 %ID/g | 0.066 ± 0.008 %ID/g | 0.009 ± 0.001 %ID/g | 0.04 ± 0.006 %ID/g
